Results on two molecules are retold here after patent publication US20060270599A1, “Inhibiting angiogenesis using molecules that enhance plasmin formation or prolong plasmin activity” (Crossbeta Biosciences B.V., priority 2000, published 2006).

Assay [1] relates to mouse C26 colon carcinoma. The assay can be described thus: Subcutaneous tumor growth of mouse C26 colon carcinoma. Type of assay: in vivo. To be noted: BALB/c mice, eleven days after tumor cell inoculation, mean ± standard error of the mean, control 2719±366. The method, then:
FIG. 1: Effect of fibrin degradation products (FDP) on tumor growth. For comparison, treatments with Alteplase® (recombinant tPA) or endostatin is shown. FDP was given continuously using Alzet® pumps (Alza, Palo Alto, Calif., USA, type 2001 or 2002) loaded with 200 μl FDP (5 mg/ml). In addition, every other day, FDP was given subcutaneously at a dose of 7 mg/kg.
A model of subcutaneous tumor growth of a mouse C26 colon carcinoma was used to evaluate the effects of FDP. Eleven days after tumor cell inoculation, tumors of the control group had reached a volume of 2719±366 mm^3. In mice treated with FDP, the mean tumor growth was 719±188 mm^3. […] Treatment with tPA, which generates plasmin, suppressed tumor growth to a similar degree (tumor volume 492±215 mm^3) as FDP.
The mouse colon adenocarcinoma cell line C-26 was maintained as a monolayer culture in Dulbecco's Minimal Essential Medium (DMEM) supplemented with 10% heat-inactivated fetal calf serum, penicillin (100 units/ml), and streptomycin (100 μg/ml) in a 5% CO2 environment. […] The presence of single cell suspension was confirmed by phase contrast microscopy, and cell viability was determined by trypan blue staining. […]
The statistical significance of differences between groups was calculated by applying Student's 2-tailed t-test. […]

Assay [2] deals with tPA-mediated plasmin formation from plasminogen (Homo sapiens, UniProt P00750). Put plainly: Measurement of plasmin activity (tPA-mediated plasmin generation, S-2251). It is filed as biochemical. Particulars: 50 μg/ml plasminogen, 30 U/ml tPA, 37° C. (FIG. 3). How it is done:
FIG. 3: Effect on plasmin activity of (A) endostatin, (B) human vitronectin fragment+(a.a. 262-367) (SEQ ID NO:1), (C) FDP, and (D) peptide derived from FDP (a.a. 148-160) (SEQ ID NO: 2).
Effect of FDP, FDP-derived synthetic peptide (a.a. 148-160) (SEQ ID NO:2), fragment (a.a. 262-367) vitronectin (SEQ ID NO:1), and endostatin on plasmin generation. Various concentrations were added.
Reactions were performed at 37° C. in HBS buffer (20 mM Hepes, 4 mM KCl, 137 mM NaCl, 3 mM CaCl2, 0.1% BSA, pH 7.4) containing 50 μg/ml plasminogen with or without the addition of endostatin or FDP. The reactions were started by the addition of tPA at a final concentration of 30 U/ml. At several time points, 20 μl samples were taken and stopped with 20 μl buffer containing 150 mM εACA and 150 mM EDTA. Plasmin activity was determined in 96-well plates after the addition of 20 μl chromogenic substrate S-2251 at a final concentration of 1.6 mM. Increase in absorbance was measured at 405 nm for 10 min.

B1: endostatin: Recombinant murine endostatin produced by Escherichia coli (protein, UniProt P39061 1591-1774, looked up)
Endostatin: HTHQDFQPVLHLVALNTPLSGGMRGIRGADFQCFQQARAVGLSGTFRAFLSSRLQDLYSIVRRADRGSVPIVNLKDEVLSPSWDSLFSGSQGQLQPGARIFSFDGRDVLRHPAWPQKSVWHGSDPSGRRLMESYCETWRTETTGATGQASSLLSGRLLEQKAASCHNSYIVLCIENSFMTSFSK
modifications: Endostatin
notes: Recombinant murine endostatin produced by Escherichia coli
B1 showed a tumor volume in assay [1] of 1112±372 mm^3. The “stimulation of tPA-mediated plasmin formation” value in assay [2] was “ability to stimulate tPA-mediated plasmin formation”.

B2: tPA: Alteplase (recombinant tPA), tissue plasminogen activator (protein, UniProt P00750 36-562, looked up)
Tissue-type plasminogen …: SYQVICRDEKTQMIYQQHQSWLRPVLRSNRVEYCWCNSGRAQCHSVPVKSCSEPRCFNGGTCQQALYFSDFVCQCPEGFAGKCCEIDTRATCYEDQGISYRGTWSTAESGAECTNWNSSALAQKPYSGRRPDAIRLGLGNHNYCRNPDRDSKPWCYVFKAGKYSSEFCSTPACSEGNSDCYFGNGSAYRGTHSLTESGASCLPWNSMILIGKVYTAQNPSAQALGLGKHNYCRNPDGDAKPWCHVLKNRRLTWEYCDVPSCSTCGLRQYSQPQFRIKGGLFADIASHPWQAAIFAKHRRSPGERFLCGGILISSCWILSAAHCFQERFPPHHLTVILGRTYRVVPGEEEQKFEVEKYIVHKEFDDDTYDNDIALLQLKSDSSRCAQESSVVRTVCLPPADLQLPDWTECELSGYGKHEALSPFYSERLKEAHVRLYPSSRCTSQHLLNRTVTDNMLCAGDTRSGGPQANLHDACQGDSGGPLVCLNDGRMTLVGIISWGLGCGQKDVPGVYTKVTNYLDWIRDNMRP
B2 displayed a tumor volume in assay [1] of 492±215 mm^3.
